Data set [1] concerns HEK-293 cells. Nature of the data set: Optimum inducer concentration to induce expression. It counts as cell-based, human.
The test system of data set [2] is Pro10 cells. Nature of the data set: Rep78 expression via western blot under second generation forskolin-inducible promoters. It is filed as cell-based. The note with it: for Rep78 expression in the presence of forskolin: 10 μM forskolin, 24 hrs; for Rep78 expression in the presence of forskolin / Rep78 expression in the absence of forskolin: western blot; for Rep78 expression in the absence of forskolin: DMSO control. The method, then:
HEK293-T (ATCC-CRL-3216) cell lines were maintained in DMEM plus 10% FBS as described for HEK293 cells. Plasmids to be transfected were linearised and transfected using Lipofectamine 2000 (Invitrogen, 11668027) as per the manufacturer's instructions. The cells were then cultured for 48 hrs in non-selective medium before being switched to selective medium (standard medium plus Blasticidin 5 ug/ml (Thermofisher, A1113902).
Each of the promoters were tested for their ability to induce expression of the Rep78 protein. To eliminate the expression of Rep52, we have mutated the ATG start codon in Rep52 to an AGG. All constructs were synthesized by Genewiz. Pro10 cells were cultured and transfected using lipofectamine 2000 as previously described. 24 hrs after transfection 10 μM forskolin was added to the cells. Control wells were given DMSO as forskolin was dissolved in this carrier. After another 24 hrs the cells were then lysed and lysates were analysed for Rep78 expression via western blot.
Cells are collected in Eppendorf tubes and centrifuged at 300 g for 5 mins in a tabletop centrifuge. Supernatants are discarded and cell pellets are lysed in 1× radioimmunoprecipitation assay (RIPA) buffer, which is made up of RIPA Lysis & Extraction Buffer (Thermofisher, UK, 89900), 100×Halt Protease Inhibitor (Thermofisher, UK, 78445). After addition of the cell lysis buffer all samples are constantly kept on ice. The samples are vortexed and either stored at −20° C. overnight or kept on ice for 30 mins prior to centrifugation at full speed (21,130 g) in the tabletop centrifuge for 20 mins at 4° C. for the removal of any insoluble material. Cell lysates are mixed with 4×LDS loading sample buffer and 10× sample reducing agent (ThermoFisher, UK, NP0007 and NP0004); they are briefly spun down, heated to 95° C. for 10 mins, allowed to cool to 10° C., briefly spun down again and then separated on polyacrylamide gels (NuPAGE Novex 4-12% Bis-Tris Gels, 1.0 mm; ThermoFisher UK, NP0324BOX), which are allowed to reach room temperature before use. The PageRuler™ Prestained NIR Protein Ladder (ThermoFisher, UK, 26635) is run alongside the cell lysates for size comparison purposes. Gels are run at 150V for 1 hour 15 mins using ThermoFisher's XCell SureLock Mini-Cell system. Gels are then transferred to nitrocellulose membranes using the iBlot 2 Dry Blotting System, p0 programme, (ThermoFisher, UK) according to the manufacturer's instructions. Initially, a total protein stain is performed following the manufacturer's instructions (Revert™ 700 Total Protein Stain for Western Blot Normalization; Licor, UK, 926-11011), and this is followed by immunoblotting of the membranes. The membranes are specifically transferred to falcon tubes where they are first blocked with the Licor Odyssey® blocking buffer at room temperature for 1 hour, followed by probing with suitable primary antibodies resuspended in the Licor Odyssey® blocking buffer in a cold room set at 4° C. overnight. The following day membranes are washed 3× in PBS-T (0.05%) for 5 mins each time and then probed with a suitable secondary antibody for 1.5 hours at room temperature. Secondary antibodies typically contain a fluorescent tag for visualisation purposes. Membranes are washed once again 2× in PBS-T (0.05%) for 5 mins each time followed by a final wash in 1×PBS for 5 mins. The membranes are imaged using an Odyssey® Fc Licor imaging system.
The antibodies used in this experiment were: primary antibody: anti-Rep antibody 303.9 clone (Progen, 61069) and Secondary antibody: LICOR anti-mouse 800 nm (LICOR, 926-32210).
We also tested the ability of the AAV helper functions to induce the activity of the best performing promoter FORN-pJB42. Transfections were carried out as previously described. Conditions are as follows, FORN-pJB42 controlling expression of Rep78 was transfected with and without the adenovirus helper functions. […]
On the technique in general: In western blotting, separated proteins are transferred to a membrane and probed.

Take `C=C[C@@]1(C)CC(=O)[C@]2(O)[C@@]3(C)[C@@H](O)CCC(C)(C)[C@@H]3[C@H](O)[C@H](OC(C)=O)[C@@]2(C)O1` [Forskolin]: the “Concentration determined to be optimum to induce expression” value in data set [1] is on record as “about 18 μM”.

B1: Synp-FORNTATAm6a: synthetic forskolin-inducible promoter, SEQ ID NO: 74; 7×cAMPRE and 6×AP1(3) with TATA-m6A minimal promoter (nucleic acid)
DNA: AATAAAATATCTTTATTTTCATTACATCTGTGTGTTGGTTTTTTGTGTGCCATTGACGTCACGATTTGACGTCAACCATTGACGTCACGATTTGACGTCAACCATTGACGTCACGATTTGACGTCACGATTTGACGTCAACCATTGACTCACGATTTGACTCAACCATTGACTCACGATTTGACTCAACCATTGACTCACGATTTGACTCACGATTTATAAAAGGCAGAGCTCGTTTAGTGAACCGAAGCTTGGACTAAAGCGGACTTGTCTCGAG
modifications: Synp-FORNTATAm6a
notes: 7×cAMPRE and 6×AP1(3) with TATA-m6A minimal promoter
Turning to B1, in data set [2], the “Rep78 expression in the presence of forskolin” value is “strong expression” and the “Rep78 expression in the absence of forskolin” value is “no Rep78 expression”.

B2: FORN-pJB42: synthetic forskolin-inducible promoter, SEQ ID NO: 73; 7×cAMPRE and 6×AP1(3) with pJB42 minimal promoter (nucleic acid)
DNA: AATAAAATATCTTTATTTTCATTACATCTGTGTGTTGGTTTTTTGTGTGCCATTGACGTCACGATTTGACGTCAACCATTGACGTCACGATTTGACGTCAACCATTGACGTCACGATTTGACGTCACGATTTGACGTCAACCATTGACTCACGATTTGACTCAACCATTGACTCACGATTTGACTCAACCATTGACTCACGATTTGACTCACGATTCTGACAAATTCAGTATAAAAGCTTGGGGCTGGGGCCGAGCACTGGGGACTTTGAGGGTGGCCAGGCCAGCGTAGGAGGCCAGCGTAGGATCCTGCTGGGAGCGGGGAACTGAGGGAAGCGACGCCGAGAAAGCAGGCGTACCACGGAGGGAGAGAAAAGCTCCGGAAGCCCAGCAGCGGCCACC
modifications: Synp-FORNpJB42
notes: 7×cAMPRE and 6×AP1(3) with pJB42 minimal promoter
For the molecule B2, in data set [2], the “Rep78 expression in the presence of forskolin” value is “strong expression” and the “Rep78 expression in the absence of forskolin” value is “no Rep78 expression”. Further, in data set [2] (adenovirus helper functions (pHelper), DMSO), the “Promoter activity (Rep78) in the presence of helper functions, absence of forskolin” value is reported as “activated”. In addition, in data set [2] (adenovirus helper functions and 10 μM forskolin), the “Promoter activity (Rep78) in the presence of helper functions and forskolin” value was “full activity”.

B3: Synp-FORNEW: synthetic forskolin-inducible promoter, SEQ ID NO: 62; 7×cAMPRE and 6×AP1(3) with YB-TATA minimal promoter (nucleic acid)
DNA: AATAAAATATCTTTATTTTCATTACATCTGTGTGTTGGTTTTTTGTGTGCCATTGACGTCACGATTTGACGTCAACCATTGACGTCACGATTTGACGTCAACCATTGACGTCACGATTTGACGTCACGATTTGACGTCAACCATTGACTCACGATTTGACTCAACCATTGACTCACGATTTGACTCAACCATTGACTCACGATTTGACTCACGATTGCGATTAATCCATATGCTCTAGAGGGTATATAATGGGGGCCACTAGTCTACTACCAGAAAGCTTGGTACCGAGCTCGGATCCAGCCACC
modifications: Synp-FORNEW
notes: 7×cAMPRE and 6×AP1(3) with YB-TATA minimal promoter
Consider B3, for which, in data set [2], the “Rep78 expression in the presence of forskolin” value is listed as “strong expression” and the “Rep78 expression in the absence of forskolin” value was “no Rep78 expression”.

Source of the values: patent US20230374526A1, “FORSKOLIN-INDUCIBLE PROMOTERS AND HYPOXIA-INDUCIBLE PROMOTERS” (ASKLEPIOS BIOPHARMACEUTICAL, INC., priority 2020, published 2023).
